Experimental data taken from patent publication US20070253950A1 (Pfizer, published 2007).

Molecular target: T1, human RAGE-Fc fusion protein (human, UniProt Q15109 23-344)
T1 construct: amino acids 1-344 of human RAGE appended to the Fc domain of human IgG; also called hRAGE-Fc; huRAGE-Fc
Assay: ligand competition ELISA: HMGB1 coated, hRAGE-Fc pre-mixed with antibody, bound hRAGE-Fc detected with anti-huIgG-HRP; blocked ligand HMGB1
Procedure: Wells were washed and blocked as described above and exposed to 100 μl of pre-incubated mixtures of RAGE-Fc or TrkB-Fc (a non-specific Fc control), at 0.1 μg/ml, plus various forms of the indicated antibody preparation (dilutions of immune sera, hybridoma supernatants or purified antibodies) for 1 hour at room temperature.

B1: XT-H2 (antibody, V domains shown)
VH: QVQLQQSGAELAKPGASVKMSCKASGYTFTTYWMHWVKQRPGQGLYWIGYINPSTGYTEYNQKFKDKATLTADKSSSTAYMQLSSLTSEDSAVYYCARWAGYTIDYWGQGTSVTVSS
VL: DVVLTQTPLSLPVNIGDQASISCKSTKSLLNSDGFTYLDWYLQKPGQSPQLLIYLVSDRFSGVPDRFSGSGSGTDFTLTISRVEAEDLGVYYCFQSNSLPLTFGSGTKLEIK
notes: also called 1hRAGEP3/16
- IC50 (read off the curve): ~0.1 µg/mL
